Test results as given in PMC10769223.

Molecular target: Galectin-3-binding protein in conditioned media of HEK293T cells expressing rSulf-2 (human (endogenous in HEK293T)) (UniProt Q08380)
Assay: affinity purification with mass spectrometry

Chain of UniProt Q08380 (Q08380 19-585): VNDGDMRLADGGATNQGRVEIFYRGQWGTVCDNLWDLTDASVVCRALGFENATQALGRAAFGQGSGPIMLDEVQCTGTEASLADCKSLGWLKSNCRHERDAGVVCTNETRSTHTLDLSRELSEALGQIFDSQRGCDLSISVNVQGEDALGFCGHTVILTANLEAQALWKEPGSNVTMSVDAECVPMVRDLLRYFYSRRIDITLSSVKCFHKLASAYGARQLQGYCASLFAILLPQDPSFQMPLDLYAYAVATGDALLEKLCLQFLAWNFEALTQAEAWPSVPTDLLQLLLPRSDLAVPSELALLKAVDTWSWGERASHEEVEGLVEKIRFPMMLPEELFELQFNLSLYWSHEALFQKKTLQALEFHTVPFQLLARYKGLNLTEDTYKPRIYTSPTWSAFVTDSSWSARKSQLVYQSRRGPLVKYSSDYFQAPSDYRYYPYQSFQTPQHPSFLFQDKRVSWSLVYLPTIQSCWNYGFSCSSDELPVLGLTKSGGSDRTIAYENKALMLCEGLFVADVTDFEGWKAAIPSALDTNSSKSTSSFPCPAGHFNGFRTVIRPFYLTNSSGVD

“rSulf-2 (HEK293T lentiviral) treated with chondroitinase ABC (enzyme)” showed a fold change of the Sulf-2/LG3BP peak-area ratio against the untreated control of 3 fold.
